Results as given in patent US20060040319A1 (published 2006).
Where no end group is shown, it is not given here.

Target: Rh-(Crk-II)-Fl (mouse, UniProt Q64010 2-304, N-alpha-tetramethylrhodamine (Rh) on the N-terminal KRG peptide); Dapa(Fl) = diaminopropionic acid-fluorescein in the C-terminal peptide; K-epsilon-(Biotin) and C-terminal amide (present in the …)
Test: cell-based or functional assay

Rh-(Crk-II)-Fl, sequence (Q64010 other isoform, or with tags, fused parts or gaps limits assumed): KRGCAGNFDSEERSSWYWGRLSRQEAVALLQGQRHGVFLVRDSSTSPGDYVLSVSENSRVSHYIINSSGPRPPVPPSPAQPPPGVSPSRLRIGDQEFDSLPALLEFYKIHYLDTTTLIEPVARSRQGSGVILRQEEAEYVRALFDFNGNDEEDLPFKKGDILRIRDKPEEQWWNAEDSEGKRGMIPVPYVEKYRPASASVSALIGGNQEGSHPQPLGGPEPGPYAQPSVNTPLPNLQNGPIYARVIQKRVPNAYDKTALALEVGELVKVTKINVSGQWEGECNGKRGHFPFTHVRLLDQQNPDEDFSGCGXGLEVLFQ

PPPALPPKRRR-NH2 [PPPALPPKRRR-NH2, high affinity ligand for the N-SH3 domain of Crk]
reduction in the change in FRET after 60 minutes reaction with full length c-Abl, relative to the positive control: 50%
